Measurements: doi:10.1101/2022.07.10.499282

Target: CXCL4 (platelet factor 4, PF4) (human)
Test: AUC

CXCL4 (platelet factor 4, PF4) (natural protein)
stoichiometry N: 4
